# Measurements taken from patent US20170037088A1 (published 2017).
# Assays:
# hGHR-Fc (human) = hGHR-Fc (human) (UniProt P10912); assay: ELISA
# [1] = target: AC299 (FIX-XTEN_AE864 with an XTEN release site specific for FXI) (UniProt P00740)
# [2] = target: AC296 (FIX-XTEN_AE864 that lacks an XTEN release site) (UniProt P00740)
# [3] = target: AC300 (FIX-XTEN_AE864 with an XTEN release site specific for thrombin) (UniProt P00740)
# glucagon receptor = glucagon receptor (UniProt P47871 26-477, limits assumed); assay: cell-based or functional assay
# hGHR-Fc (human), sequence (P10912 19-264): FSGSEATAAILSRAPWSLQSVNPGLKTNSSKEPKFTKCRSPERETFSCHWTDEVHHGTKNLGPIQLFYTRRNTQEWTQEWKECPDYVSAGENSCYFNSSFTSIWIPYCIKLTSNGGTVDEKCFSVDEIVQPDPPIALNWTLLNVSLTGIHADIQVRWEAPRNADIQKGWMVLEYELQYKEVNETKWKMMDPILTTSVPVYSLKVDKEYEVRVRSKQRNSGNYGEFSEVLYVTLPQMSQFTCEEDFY
molecule,measurement,setting,value
AE912-hGH-AE144,EC50,hGHR-Fc (human),16.2 nM
"immobilized thrombin (Thrombin CleanCleave Kit, RECOM-T, Sigma)","Clotting activity (ng/ng), with thrombin",[1],0.02 ng/ng
same,"Clotting activity (ng/ng), with thrombin",[2],0.01 ng/ng
same,"Clotting activity (ng/ng), with thrombin",[3],0.8 ng/ng
glucagon-Y288 (other) HSQGTFTSDYSKYLDSRRAQDFVQWLMNTGEGSGEGSEGEGSEGSGEGEGSEGSGEGEGGSEGSEGEGGSEGSEGEGGSEGSEGEGSGEGSEGEGGSEGSEGEGSGEGSEGEGSEGGSEGEGGSEGSEGEGSGEGSEGEGGEGGSEGEGSEGSGEGEGSGEGSEGEGSEGSGEGEGSGEGSEGEGSEGSGEGEGSEGSGEGEGGSEGSEGEGSEGSGEGEGGEGSGEGEGSGEGSEGEGGGEGSEGEGSGEGGEGEGSEGGSEGEGGSEGGEGEGSEGSGEGEGSEGGSEGEGSEGGSEGEGSEGSGEGEGSEGSGE,"EC50, real-time calcium mobilization (FLIPR)",glucagon receptor,72 nM
